Assay results published in paper PMC4541365, “Alpha-ring Independent Assembly of the 20S Proteasome” (Scientific Reports, 2015).

Molecular target: the molecule itself
Assay: native gel or EMSA; ICAR-purified α-his subunits alone (10 or 20 μg) on nondenaturing 4–15% or 5–10% gradient gels, 55 V, 4 °C; self-assembly into single and double α-rings

B1: Methanococcus maripaludis S2 20S proteasome α subunit, C-terminally hexahistidine-tagged, wild type (natural protein, UniProt Q6M0L9 1-259, looked up)
chain: MQQMVPASGYDRAITIFSPEGRLYQVEYAREAVRRGTTAVGIKCKDGVVLAVDRRITSKLIDVSSIEKIFQIDDHIVAATSGLVADARVLIDRARIEAQMNRVSYGEAITVEALAKKICDIKQAYTQHGGARPFGLALLITGIDRHSARLFETDPSGALIEYKATAIGSGRPIAMEVLESKYDENMTVSEGMELALYALSKTTEELKPENIDMAIIKDSGKLVEKISVDEIEKIVKAVYEKVKAEEEEAEKNKGEEDSE
notes: Proteasome subunit alpha of Methanococcus maripaludis S2, cloned by PCR from genomic DNA; expected Mr of α-his 29.5 kDa; Exists as single rings (SR), double rings (DR) and non-ring species; also called α-his; WT α; source: also Sephacryl S-300 fractions; also in lysate (lysate mixing) or coexpressed with β subunits; not shown: His6, C-terminal, kept
binding result: binds
